B1: acid-gated ASIC1 channel (natural protein, mouse (endogenous in brain), UniProt Q6NXK8 1-526, looked up)
chain: MELKTEEEEVGGVQPVSIQAFASSSTLHGLAHIFSYERLSLKRALWALCFLGSLAVLLCVCTERVQYYFCYHHVTKLDEVAASQLTFPAVTLCNLNEFRFSQVSKNDLYHAGELLALLNNRYEIPDTQMADEKQLEILQDKANFRSFKPKPFNMREFYDRAGHDIRDMLLSCHFRGEACSAEDFKVVFTRYGKCYTFNSGQDGRPRLKTMKGGTGNGLEIMLDIQQDEYLPVWGETDETSFEAGIKVQIHSQDEPPFIDQLGFGVAPGFQTFVSCQEQRLIYLPSPWGTCNAVTMDSDFFDSYSITACRIDCETRYLVENCNCRMVHMPGDAPYCTPEQYKECADPALDFLVEKDQEYCVCEMPCNLTRYGKELSMVKIPSKASAKYLAKKFNKSEQYIGENILVLDIFFEVLNYETIEQKKAYEIAGLLGDIGGQMGLFIGASILTVLELFDYAYEVIKHRLCRRGKCQKEAKRNSADKGVALSLDDVKRHNPCESLRGHPAGMTYAANILPHHPARGTFEDFTC
B2: voltage-gated HCN1 channel (natural protein, mouse (endogenous in brain), UniProt O88704 1-910, looked up)
chain: MEGGGKPNSASNSRDDGNSVFPSKAPATGPVAADKRLGTPPGGGAAGKEHGNSVCFKVDGGGGEEPAGSFEDAEGPRRQYGFMQRQFTSMLQPGVNKFSLRMFGSQKAVEKEQERVKTAGFWIIHPYSDFRFYWDLIMLIMMVGNLVIIPVGITFFTEQTTTPWIIFNVASDTVFLLDLIMNFRTGTVNEDSSEIILDPKVIKMNYLKSWFVVDFISSIPVDYIFLIVEKGMDSEVYKTARALRIVRFTKILSLLRLLRLSRLIRYIHQWEEIFHMTYDLASAVVRIFNLIGMMLLLCHWDGCLQFLVPLLQDFPPDCWVSLNEMVNDSWGKQYSYALFKAMSHMLCIGYGAQAPVSMSDLWITMLSMIVGATCYAMFVGHATALIQSLDSSRRQYQEKYKQVEQYMSFHKLPADMRQKIHDYYEHRYQGKIFDEENILSELNDPLREEIVNFNCRKLVATMPLFANADPNFVTAMLSKLRFEVFQPGDYIIREGAVGKKMYFIQHGVAGVITKSSKEMKLTDGSYFGEICLLTKGRRTASVRADTYCRLYSLSVDNFNEVLEEYPMMRRAFETVAIDRLDRIGKKNSILLQKFQKDLNTGVFNNQENEILKQIVKHDREMVQAIPPINYPQMTALNCTSSTTTPTSRMRTQSPPVYTATSLSHSNLHSPSPSTQTPQPSAILSPCSYTTAVCSPPIQSPLATRTFHYASPTASQLSLMQQPQQQLPQSQVQQTQTQTQQQQQQQQQQQQQQQQQQQQQQQQQQQQQQQQQQQQQPQTPGSSTPKNEVHKSTQALHNTNLTKEVRPLSASQPSLPHEVSTLISRPHPTVGESLASIPQPVAAVHSTGLQAGSRSTVPQRVTLFRQMSSGAIPPNRGVPPAPPPPAAVQRESPSVLNTDPDAEKPRFASNL

Molecular target: the molecule itself
Test: native gel or EMSA

Protein | stoichiometry N
B1 | 3
B2 | 4

Source: publication PMC10592209 (Neuron, 2023)
